# Reference: publication PMC4388643
# B1: Lcc4 laccase (nLcc4): Endo H, 1 h to overnight (protein)
# parent chain: MKALSFLTPIVTLALVAGAFASVGPVANLKIGNAAVSPDGYTRDAVVVNGATPGPLIVGNKGDNFRLNVIDELTNHTMLKSTSIHWHGFFQHGTNWADGGAFVNQCPISSGHSFSYNFQAKDQAGTFWYHSHLSTQYCDGLRGPFVVYDPKDPHKKLYDVDNESTVITLEDWYHTAARLGPRFPLGSDSTLINGLGRSATTATGDLAVIKVTRGKRYRFRLVSLSCDPFYTFSIDGHNMTIIEADAVNTKPHTVDSLEIFAGQRYSFILNANQPVDNYWVRANPNFGNVGFTNGINSAILRYDGAAVAEPATAIPPASVTPLLETDLHPLVSTPVPGSPVAGGVDKALNFVFNFDGTNFFINDATFTPPSVPVLLQILSGAQAAQDLLPSGSVIPLPALSTIELSFPATANAPGVPHPFHLHGHTFAVVRSAGSTAYNYEDPVWRDVVSTGTPAAGDNVTIRFVTDNPGPWFLHCHIDFHLEAGFAVVFAEDLPGTPAANPVPQSWSDLCPIYDALAEDDQ
# B2: Lcc4 laccase (nLcc4): Endo H (dLcc4) (protein)
# parent chain: B1 parent chain
# B3: Lcc4 laccase (nLcc4): N75D (protein)
# parent chain: B1 parent chain
# B4: Lcc4 laccase (nLcc4): N238D (protein)
# parent chain: B1 parent chain
# B5: Lcc4 laccase (nLcc4): N458D (protein)
# parent chain: B1 parent chain
# Key:
# zymography = settings: glycan lost; control: nLcc4 (untreated)
# [1] = activity versus pH and temperature; settings: glycan lost; control: nLcc4 (untreated)
# [2] = zymography of culture media; settings: glycan lost; control: rLcc4-WT (P. pastoris)
Protein,enzymatic_activity [2],also measured
B1,–,enzymatic_activity (zymography): no change
B2,–,other: optimal pH and temperature [1]: no change
B3,"decreases, the N75D mutant showed activity at around 60 s",–
B4,abolishes,–
B5,abolishes,–
